Drawing on paper PMC2680606, this text covers decrease of binding against wild type RCBTB1 for 1 substance.

The target in the assay is Myc-UbcM2-His6 (mouse) (UniProt P52483). Nature of the assay: pull-down.
Sequence of Myc-UbcM2-His6 (mouse) (P52483 whole entry): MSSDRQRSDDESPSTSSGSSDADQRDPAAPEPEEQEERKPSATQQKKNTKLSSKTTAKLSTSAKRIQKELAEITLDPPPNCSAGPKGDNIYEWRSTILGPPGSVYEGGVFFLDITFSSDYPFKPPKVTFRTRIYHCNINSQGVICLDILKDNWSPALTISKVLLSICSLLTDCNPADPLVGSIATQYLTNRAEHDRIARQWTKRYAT

Sequence of ^35S-RCBTB1 without the BTB domain and the C-terminal 87 residues (Q8NDN9 1-359): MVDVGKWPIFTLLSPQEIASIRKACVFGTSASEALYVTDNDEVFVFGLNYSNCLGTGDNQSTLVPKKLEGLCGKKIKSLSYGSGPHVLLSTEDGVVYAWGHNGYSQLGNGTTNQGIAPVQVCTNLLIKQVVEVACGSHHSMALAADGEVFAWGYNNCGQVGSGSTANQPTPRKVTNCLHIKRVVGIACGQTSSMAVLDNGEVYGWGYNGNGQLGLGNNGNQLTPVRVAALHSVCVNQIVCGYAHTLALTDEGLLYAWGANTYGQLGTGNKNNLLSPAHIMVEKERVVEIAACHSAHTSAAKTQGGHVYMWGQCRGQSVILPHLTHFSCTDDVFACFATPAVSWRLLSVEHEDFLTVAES

With “^35S-RCBTB1 without the BTB domain and the C-terminal 87 residues (from UniProt Q8NDN9 1-359) (domain or fragment)”, the decrease of binding against wild type RCBTB1 came out at 78%.
